This assay has as its target purified E. coli 30S ribosomal subunit (E. coli (endogenous in MRE600)). As to the kind of experiment: fluorescence polarisation; cf-labeled peptide (10 µL of 40 nmol/L) added to a 2-fold dilution series (22 steps, 10 µL) of pure 70S ribosome, 50S or 30S subunit; ribosome preparation buffer (20 mmol/L HEPES-KOH, 6 mmol/L MgCl2, 30 mmol/L NH4Cl, pH 7.6); 28 ± 1 °C, 90 min; apparent Kd (average over at least two or three sites). On the technique in general: Fluorescence polarisation rises when a labelled molecule tumbles more slowly, as on binding a larger partner.

[ ]: non-standard residue; d: D form.

Take {5(6)‑carboxyfluorescein}-VDKPPYLPRPRPPR[dR]IYN[dR]-NH2 [cf-Onc112 (5(6)-carboxyfluorescein-labeled Onc112, …rIYNr-NH2)]: the fold weaker binding than to the 50S subunit came to 23 fold.

Values taken from publication PMC11087509, “Multimodal binding and inhibition of bacterial ribosomes by the antimicrobial peptides Api137 and Api88” (Nature Communications, 2024).
